Test results taken from IntAct's records for PubMed 26320582.

Target: tom1_human TOM1 (UniProt O60784)
Sequence (O60784 whole entry): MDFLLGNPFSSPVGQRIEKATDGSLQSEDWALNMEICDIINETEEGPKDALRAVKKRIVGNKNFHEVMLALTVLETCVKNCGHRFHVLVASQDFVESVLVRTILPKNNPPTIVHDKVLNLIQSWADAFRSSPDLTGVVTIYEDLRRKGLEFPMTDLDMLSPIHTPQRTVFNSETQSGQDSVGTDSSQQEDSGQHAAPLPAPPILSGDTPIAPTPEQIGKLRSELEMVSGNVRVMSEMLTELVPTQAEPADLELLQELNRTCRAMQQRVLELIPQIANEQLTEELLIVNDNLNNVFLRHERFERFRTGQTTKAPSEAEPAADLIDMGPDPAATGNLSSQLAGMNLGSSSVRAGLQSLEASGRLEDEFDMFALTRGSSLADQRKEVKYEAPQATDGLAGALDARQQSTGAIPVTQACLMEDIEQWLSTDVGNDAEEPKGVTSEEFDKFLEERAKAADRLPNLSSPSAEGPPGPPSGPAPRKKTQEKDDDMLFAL

effect of a mutation on the interaction | Substance
decreasing interaction strength | Toll-interacting protein (Homo sapiens) (from UniProt Q9H0E2-1) F21A
decreasing interaction strength | Toll-interacting protein (Homo sapiens) (from UniProt Q9H0E2-1) D20A;R23A
decreasing interaction strength | Toll-interacting protein (Homo sapiens) (from UniProt Q9H0E2-1) R9A;V12A
